Article PMC5358723 (Genes & Development, 2017)

B1: RAP80-AIR (amino acids 227-346), bacterially expressed (domain or fragment, UniProt Q96RL1 227-346, looked up)
chain: HTQCGKPQESTGRGSAFLKAVQGSGDTSRHCLPTLADAKGLQDTGGTVNYFWGIPFCPDGVDPNQYTKVILCQLEVYQKSLKMAQRQLLNKKGFGEPVLPRPPSLIQNECGQGEQASEKN
B2: ZMYM3 CT (amino acids 1000-1370), bacterially expressed (domain or fragment, human, UniProt Q14202 1000-1370, looked up)
chain: FPKNPLDINPSVDFLFDCGLVGPEDVSTEQDLPRTMRKGQKRLVLSESCSRDSMSSQPSCTGLNYSYGVNAWKCWVQSKYANGETSKGDELRFGPKPMRIKEDILACSAAELNYGLAQFVREITRPNGERYEPDSIYYLCLGIQQYLLENNRMVNIFTDLYYLTFVQELNKSLSTWQPTLLPNNTVFSRVEEEHLWECKQLGVYSPFVLLNTLMFFNTKFFGLQTAEEHMQLSFTNVVRQSRKCTTPRGTTKVVSIRYYAPVRQRKGRDTGPGKRKREDEAPILEQRENRMNPLRCPVKFYEFYLSKCPESLRTRNDVFYLQPERSCIAESPLWYSVIPMDRSMLESMLNRILAVREIYEELGRPGEEDLD

What was measured:
[1] = biological target: B2; assay: pull-down
[2] = biological target: T1, full-length ABRA1, bacterially expressed (UniProt Q6UWZ7 1-409); assay: pull-down
T1 sequence (looked up): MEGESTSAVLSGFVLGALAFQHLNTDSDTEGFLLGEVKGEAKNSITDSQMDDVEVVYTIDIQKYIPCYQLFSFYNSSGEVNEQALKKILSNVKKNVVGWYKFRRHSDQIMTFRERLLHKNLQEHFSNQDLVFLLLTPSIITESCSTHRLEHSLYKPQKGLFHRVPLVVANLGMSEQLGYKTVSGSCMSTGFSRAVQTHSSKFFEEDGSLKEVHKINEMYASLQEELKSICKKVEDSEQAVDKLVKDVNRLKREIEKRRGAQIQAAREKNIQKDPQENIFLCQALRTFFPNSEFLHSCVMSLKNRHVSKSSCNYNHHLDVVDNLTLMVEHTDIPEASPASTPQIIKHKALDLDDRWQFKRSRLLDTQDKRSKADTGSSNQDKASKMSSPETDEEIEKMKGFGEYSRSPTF

Binder	binding result [1]	binding result [2]
B1	binds	
B2		binds
